T1: human CEA protein on the cell surface (human, UniProt P06731 35-685)
T1 construct: whole, on cells; also called CEACAM-5; CD66e
T1 sequence (looked up): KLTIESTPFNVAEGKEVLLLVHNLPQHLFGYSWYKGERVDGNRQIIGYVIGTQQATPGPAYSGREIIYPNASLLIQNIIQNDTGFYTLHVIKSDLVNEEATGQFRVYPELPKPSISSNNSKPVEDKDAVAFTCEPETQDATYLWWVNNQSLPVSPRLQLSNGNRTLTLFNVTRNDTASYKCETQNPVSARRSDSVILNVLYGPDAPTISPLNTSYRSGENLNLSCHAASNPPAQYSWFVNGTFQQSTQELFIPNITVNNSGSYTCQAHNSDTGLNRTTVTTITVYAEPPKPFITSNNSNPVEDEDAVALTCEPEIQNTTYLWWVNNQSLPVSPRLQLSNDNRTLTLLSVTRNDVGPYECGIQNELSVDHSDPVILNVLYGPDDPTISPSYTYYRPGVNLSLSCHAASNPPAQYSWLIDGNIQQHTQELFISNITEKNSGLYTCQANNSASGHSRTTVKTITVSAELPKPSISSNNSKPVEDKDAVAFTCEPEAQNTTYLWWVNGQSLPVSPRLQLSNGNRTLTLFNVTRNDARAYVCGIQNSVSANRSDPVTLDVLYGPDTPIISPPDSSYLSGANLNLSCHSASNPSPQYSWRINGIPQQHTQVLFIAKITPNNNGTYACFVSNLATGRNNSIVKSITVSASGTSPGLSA

T2: monkey CEA expressed on CHO cell surface (cynomolgus monkey)
T2 construct: also called cynoCEA-CHO; monkey CEA proteins on the cell surface
T2 chain: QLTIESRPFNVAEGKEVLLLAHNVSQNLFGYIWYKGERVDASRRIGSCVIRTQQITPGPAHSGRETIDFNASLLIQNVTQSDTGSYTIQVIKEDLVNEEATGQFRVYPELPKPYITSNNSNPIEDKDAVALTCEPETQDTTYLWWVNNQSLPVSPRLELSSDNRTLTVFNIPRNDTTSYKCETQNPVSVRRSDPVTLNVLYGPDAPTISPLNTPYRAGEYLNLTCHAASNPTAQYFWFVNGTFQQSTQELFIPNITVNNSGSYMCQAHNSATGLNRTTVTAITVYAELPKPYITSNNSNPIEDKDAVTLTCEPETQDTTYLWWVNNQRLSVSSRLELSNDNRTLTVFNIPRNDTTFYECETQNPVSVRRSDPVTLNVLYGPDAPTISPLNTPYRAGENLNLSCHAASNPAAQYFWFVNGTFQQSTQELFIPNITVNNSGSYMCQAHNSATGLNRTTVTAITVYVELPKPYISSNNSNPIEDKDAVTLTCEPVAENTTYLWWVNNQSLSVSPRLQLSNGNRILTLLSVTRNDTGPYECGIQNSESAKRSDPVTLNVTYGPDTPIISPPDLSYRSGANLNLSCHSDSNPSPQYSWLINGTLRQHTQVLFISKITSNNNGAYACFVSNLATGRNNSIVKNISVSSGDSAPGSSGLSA


Tests used:
[1] = biological target: T1, human CEA protein on the cell surface; assay: FACS, MKN45 cells
Procedure: (§1) In order to detect the binding of the antibody to the CEA protein on the cell surface, the binding activity of the antibody was determined by FACS using cells expressing CEA on the cell surface. Cells were harvested and centrifuged at 400 g at 4° C. for 5 min. Pre-cooled PBS containing FBS at final concentration 10% was added, and the mixture was centrifuged at 400 g at 4° C. for 5 min; the procedures were repeated twice. The cells were seeded into a 96-well plate at 10⁵ cells/well, and 100 μL of gradient diluted antibody solution was added to each well. The plate was incubated at 4° C. for 60 min and centrifuged, and the supernatant was removed. 250 μL of pre-cooled PBS containing FBS at final concentration 10% was added to each well to resuspend the cells, and the suspension was centrifuged at 400 g at 4° C. for 5 min, followed by the removal of the supernatant; the procedures were repeated twice. 50 μL of 1:200 diluted secondary antibody Alexa Fluor@488 goat anti-human IgG (H+L) (Lifetechologies, Cat #A11013) was added. […] 250 μL of pre-cooled PBS containing FBS at final concentration 10% was added to each cell to resuspend the cells, and the suspension was centrifuged at 400 g at 4° C. for 5 min; the procedures were repeated twice. 100 μL of pre-cooled PBS was added to each well to resuspend the cells. The plate was analyzed by a flow cytometer (BD, FACSverse) for fluorescence signal values.

[2] = biological target: T2, monkey CEA expressed on CHO cell surface; assay: FACS, cynoCEA-CHO cells
Procedure: as §1

Binder	EC50 [1]	EC50 [2]
Hu67-7 (antibody, V domains shown) VH: EVQLVQSGAEVKKPGESLKISCKGSGYSFTDYHMNWVRQMPGKGLEWMGDINPDIGGTSYNQNFKGQVTISADKSISTAYLQWSSLKASDTAMYYCARWDFDSFANWGQGTLVTVSS VL: EIVMTQSPATLSVSPGERATLSCRASESVSIIGTNLIHWYQQKPGQAPRLLIYHASNLETGIPARFSGSGSGTEFTLTISSLQSEDFAVYYCLQSRKIPYTFGGGTKVEIKR	3.88 nM	7.2 nM
Hu67-9 (antibody, human IgG1, kappa, V domains shown) VH: EVQLVQSGAEVKKPGESLKISCKGSGYSFTDYHMNWVRQMPGKGLEWMGDINPDIGGTSYNQNFKGQVTISADKSISTAYLQWSSLKASDTAMYYCARWDFDSFANWGQGTLVTVSS VL: DIQMTQSPSSLSASVGDRVTITCRASESVSIIGTNLIHWYQQKPGKAPKLLIYHASNLETGVPSRFSGSGSGTDFTLTISSLQPEDFATYYCLQSRKIPYTFGGGTKVEIKR	3.75 nM	3.72 nM
Hu67-10 (antibody, human IgG1, kappa, V domains shown) VH: EVQLVQSGAEVKKPGESLKISCKGSGYSFTDYHMNWVRQMPGKGLEWMGDINPDIGGTSYNQNFKGQVTISADKSISTAYLQWSSLKASDTAMYYCARWDFDSFANWGQGTLVTVSS VL: DIVMTQSPSSLSASVGDRVTITCRASESVSIIGTNLIHWYQQKPGKPPKLLIYHASNLETGVPSRFSGSGSGTDFTLTISSLQPEDFATYYCLQSRKIPYTFGGGTKVEIKR	3.19 nM	5.37 nM
Hu67-5 (antibody, human IgG1, kappa, V domains shown) VH: EVQLVQSGAEVKKPGASVKVSCKASGYTFTDYHMNWVRQAPGQRLEWMGDINPDIGGTSYNQNFKGRVTITRDTSASTAYMELSSLRSEDTAVYYCARWDFDSFANWGQGTLVTVSS VL: DIVMTQSPSSLSASVGDRVTITCRASESVSIIGTNLIHWYQQKPGKPPKLLIYHASNLETGVPSRFSGSGSGTDFTLTISSLQPEDFATYYCLQSRKIPYTFGGGTKVEIKR	2.86 nM	3.5 nM
Hu67-4 (antibody, human IgG1, kappa, V domains shown) VH: EVQLVQSGAEVKKPGASVKVSCKASGYTFTDYHMNWVRQAPGQRLEWMGDINPDIGGTSYNQNFKGRVTITRDTSASTAYMELSSLRSEDTAVYYCARWDFDSFANWGQGTLVTVSS VL: DIQMTQSPSSLSASVGDRVTITCRASESVSIIGTNLIHWYQQKPGKAPKLLIYHASNLETGVPSRFSGSGSGTDFTLTISSLQPEDFATYYCLQSRKIPYTFGGGTKVEIKR	3.25 nM	3.06 nM
Hu67-1 (antibody, human IgG1, kappa, V domains shown) VH: EVQLVQSGAEVKKPGASVKVSCKASGYTFTDYHMNWVRQAPGQRLEWMGDINPDIGGTSYNQNFKGRVTITRDTSASTAYMELSSLRSEDTAVYYCARWDFDSFANWGQGTLVTVSS VL: DIVMTQSPDSLAVSLGERATINCRASESVSIIGTNLIHWYQQKPGQPPKLLIYHASNLETGVPDRFSGSGSGTDFTLTISSLQAEDVAVYYCLQSRKIPYTFGGGTKVEIKR	2.46 nM	4.57 nM
Hu47-10 (antibody, human IgG1, kappa, V domains shown) VH: EVQLVQSGSELKKPGASVKVSCKASGYTFTTYGMSWVKQAPGQGLKWMGWINTYSGVPTYADDFKGRFVFSLDTSVSTAYLQISSLKAEDTAVYYCARRGNYGRWDFDVWGQGTTVTVSS VL: EIVLTQSPDFQSVTPKEKVTITCSVSSTISSSNLHWYQQKPDQSPKPLIYGTSNLASGVPSRFSGSGSGTDYTLTINSLEAEDAATYYCQQWSIYPLTFGQGTKLEIKR	2.27 nM	0.27 nM
Hu47-6 (antibody, human IgG1, kappa, V domains shown) VH: EVQLVQSGSELKKPGASVKVSCKASGYTFTTYGMSWVRQAPGQGLKWMGWINTYSGVPTYADDFKGRFVFSLDTSVSTAYLQISSLKAEDTAVYYCARRGNYGRWDFDVWGQGTTVTVSS VL: EIVLTQSPDFQSVTPKEKVTITCSVSSTISSSNLHWYQQKPDQSPKPLIYGTSNLASGVPSRFSGSGSGTDYTLTINSLEAEDAATYYCQQWSIYPLTFGQGTKLEIKR	2.5 nM	0.3 nM

Second part, the binder after the results:

EC50 [1]	EC50 [2]	Binder
2.26 nM	4.66 nM	Hu67-11 (antibody, human IgG1, kappa, V domains shown) VH: EVQLVQSGAEVKKPGESLKISCKGSGYSFTDYHMNWVKQMPGKGLEWMGDINPDIGGTSYNQNFKGKVTISVDKSISTAYLQWSSLKASDTAMYYCARWDFDSFANWGQGTLVTVSS VL: DIVMTQSPDSLAVSLGERATINCRASESVSIIGTNLIHWYQQKPGQPPKLLIYHASNLETGVPDRFSGSGSGTDFTLTISSLQAEDVAVYYCLQSRKIPYTFGGGTKVEIKR
3.2 nM	5.31 nM	Hu67-12 (antibody, V domains shown) VH: EVQLVQSGAEVKKPGESLKISCKGSGYSFTDYHMNWVKQMPGKGLEWMGDINPDIGGTSYNQNFKGKVTISVDKSISTAYLQWSSLKASDTAMYYCARWDFDSFANWGQGTLVTVSS VL: EIVMTQSPATLSVSPGERATLSCRASESVSIIGTNLIHWYQQKPGQAPRLLIYHASNLETGIPARFSGSGSGTEFTLTISSLQSEDFAVYYCLQSRKIPYTFGGGTKVEIKR
2.42 nM	0.96 nM	Hu103-19 (antibody, human IgG1, lambda) heavy: not shown light: ELVLTQSPSASASLGASVKLTCTLSSQHSTYTIEWYQQQPEKGPRYVMELKKDGSHSTGDGIPDRFSGSSSGAERYLTISSLQSEDEADYYCGVGNTIKEQFVYVFGGGTKLTVLGQPKANPTVTLFPPSSEELQANKATLVCLISDFYPGAVTVAWKADGSPVKAGVETTKPSKQSNNKYAASSYLSLTPEQWKSHRSYSCQVTHEGSTVEKTVAPTECS
2.9 nM	0.93 nM	Hu103-23 (antibody, human IgG1, lambda) heavy: not shown light: ELVVTQSPSASASLGASVKLTCTLSSQHSTYTIEWYQQQPEKPPRYVMELKKDGSHSTGDGIPDRFSGSSSGADRYLTISSLQSEDEADYICGVGNTIKEQFVYVFGGGTKLTVLGQPKANPTVTLFPPSSEELQANKATLVCLISDFYPGAVTVAWKADGSPVKAGVETTKPSKQSNNKYAASSYLSLTPEQWKSHRSYSCQVTHEGSTVEKTVAPTECS
1.34 nM	1.17 nM	Hu103-21 (antibody, human IgG1, lambda) heavy: not shown light: ELVLTQSPSASASLGASVKLTCTLSSQHSTYTIEWYQQQPEKPPRYVMELKKDGSHSTGDGIPDRFSGSSSGAERYLTISSLQSEDEADYICGVGNTIKEQFVYVFGGGTKLTVLGQPKANPTVTLFPPSSEELQANKATLVCLISDFYPGAVTVAWKADGSPVKAGVETTKPSKQSNNKYAASSYLSLTPEQWKSHRSYSCQVTHEGSTVEKTVAPTECS
2.19 nM	0.98 nM	Hu103-20 (antibody, human IgG1, lambda) heavy: not shown light: ELVVTQSPSASASLGASVKLTCTLSSQHSTYTIEWYQQQPEKGPRYVMELKKDGSHSTGDGIPDRFSGSSSGAERYLTISSLQSEDEADYYCGVGNTIKEQFVYVFGGGTKLTVLGQPKANPTVTLFPPSSEELQANKATLVCLISDFYPGAVTVAWKADGSPVKAGVETTKPSKQSNNKYAASSYLSLTPEQWKSHRSYSCQVTHEGSTVEKTVAPTECS
3.64 nM	1.02 nM	Hu103-22 (antibody, human IgG1, lambda) heavy: not shown light: ELVVTQSPSASASLGASVKLTCTLSSQHSTYTIEWYQQQPEKPPRYVMELKKDGSHSTGDGIPDRFSGSSSGAERYLTISSLQSEDEADYICGVGNTIKEQFVYVFGGGTKLTVLGQPKANPTVTLFPPSSEELQANKATLVCLISDFYPGAVTVAWKADGSPVKAGVETTKPSKQSNNKYAASSYLSLTPEQWKSHRSYSCQVTHEGSTVEKTVAPTECS

From US20230055408A1 (JIANGSU HENGRUI MEDICINE, published 2023)
